{"source": "the DeepSol protein solubility set"}
{"experiment": "soluble on expression in E. coli; label from the status in PepcDB or PDB records"}
{"sequence": "MSLDQVDKALTPKEKAETGVPFYASNQAGIITAQQTYCYIASFDIQTESRQILQDLFVKWTKFADLTTSGGVLRDVDNDMLPPNDTGEADGLGISNFTVTLGYGPTFFEKDGKDRFGVKAKKPKYLEKIPHMAHDSLDEAYSDGDLCIQVCADDQQVAFHGIRNFIRLASGVAVVRWIEEGFLSAPKNETPRNLFGFKDGTANVDHDSNKGYKDVVWAEKDEPEWMRNGSYLGYRKIQMLIEIWDRSSLLDQEDTFGRKKASGAPYHKKHEHDKVDPSKLPADSHVRLAKDTKQQMHRRAYSYTNGIDKSTGTIDAGLLFICFTQNPAKQFLPMLSIMGKMDKLNEYTVPIGSAMFACQGGLAPGEIFGEKLLEGHHHHHH", "soluble on expression in E. coli": "soluble"}
{"sequence": "MGSDKIHHHHHHNTPREVTLHFLRTAGHPLTRWALQRQPPSPKQLEEEFLKIPSNFVSPEDLDIPGHASKDRYKTILPNPQSRVCLGRAQSQEDGDYINANYIRGYDGKEKVYIATQGPMPNTVSDFWEMVWQEEVSLIVMLTQLREGKEKCVHYWPTEEETYGPFQIRIQDMKECPEYTVRQLTIQYQEERRSVKHILFSAWPDHQTPESAGPLLRLVAEVEESPETAAHPGPIVVHCSAGIGRTGCFIATRIGCQQLKARGEVDILGIVCQLRLDRGGMIQTAEQYQFLHHTLALYAGQLPEEPSP", "soluble on expression in E. coli": "not soluble"}
{"sequence": "MAHHHHHHMNTSLSNNENENNFFIKSFFESLSNFIKNIKIEIKDTFELLNYPCVYQNSKKKFSVSENEDYKNSLTTNVISKIDKKNIENFRVYQKELHNILQNIKTFNEKYKLDVPLLSIMENLIILHLINEYKINNIVKKIQEHNIPMPELNSDLPDYLIPTLELEENQNESNLNVSISEINNLSINNNAVKHILENAQLKVDFSKLVKLNGENHLNSSSINPSSELNEKSDELTLYKKDDKIHNLTHDIKEEINNERNEDQYLNRSHNNEDEKHTLMTSKKEEKVNLIQNIGLSEETLKLLNLLPKKRKNDQN", "soluble on expression in E. coli": "not soluble"}
{"sequence": "GPLGSPEFPGRRKPEAQPFAHLTINAASIPSGSHKVTLSSWYHDRGWAKISNMTLSNGKLRVNQDGFYYLYANICFRHHETSGSVPTDYLQLMVYVVKTSIKIPSSHNLMKGGSTKNWSGNSEFHFYSINVGGFFKLRAGEEISIQVSNPSLLDPDQDATYFGAFKVQDID", "soluble on expression in E. coli": "soluble"}
{"sequence": "MDNLNVFANEDNQVNDVKPPPPPPRVCARCDSDNTKFCYYNNYCEFQPRYFCKNCRRYWTHGGALRNIPIGGSSRAKRARVNQPSVARMVSVETQRGNNQPFSNVQENVHLVGSFGASSSSSVGAVGNLFGSLYDIHGGMVTNLHPTRTVRPNHRLAFHDGSFEQDYYDVGSDNLLVNQQVGGYGYHMNPVDQFKWNQSFNNTMNMNYNNDSTSGSSRGSDMNVNHDNKKIRYRNSVIMHPCHLEKDGP", "soluble on expression in E. coli": "not soluble"}
{"sequence": "MAELNFKAIEEKWQKRWLEAKIFEPNIRDKPKEKKFYITVAFPYLSGHLHVGHARTYTIPDVIARFKRMQGYNVLFPMAWHITGSPIVGIAERIKNRDPKTIWIYRDVYKVPEEILWTFEDPINIVKYFMKAAKETFIRAGFSVDWSREFYTTSLFPPFSKFIEWQFWKLKEKGYIVKGAHRVRWDPVVGTPLGDHDLMEGEDVPILDYIIIKFELRENGEVIYLPAATLRPETVYGVTNMWVNPNATYVKAKVRRKDKEETWIVSKEAAYKLSFQDREIEVIEEFKGEKLIGKYVRNPVSGDEVIILPAEFVDPDNATGVVMSVPAHAPFDHVALEDLKRETEILEKYDIDPRIVENITYISLIKLEGYGDFPAVEEVNKLGIKSQKDKEKLEQATKTIYKAEYHKGIFKVPPYEGKPVQEVKEAIAKEMLEKGIAEIMYEFAEKNVISRFGNRAVIKIIHDQWFIDYGNPEWKEKARKALERMKILPETRRAQFEAIIDWLDKKACARKIGLGTPLPWDPEWVIESLSDSTIYMAYYTISRHINKLRQEGKLDPEKLTPEFFDYIFLEEFSEDKEKELEKKTGIPAEIIHEMKEEFEYWYPLDWRCSGKDLIPNHLTFFIFNHVAIFREEHWPKGIAVNGFGTLEGQKMSKSKGNVLNFIDAIEENGADVVRLYIMSLAEHDSDFDWRRKEVGKLRKQIERFYELISQFAEYEVKGNVELKDIDRWMLHRLNKAIKETTNALEEFRTRTAVQWAFYSIMNDLRWYLRRTEGRDDEAKRYVLRTLADVWVRLMAPFTPHICEELWEKLGGEGFVSLAKWPEPVEEWWNETIEAEEEFIRSVMEDIKEIIEVAKIENAKRAYIYTAEDWKWKVAEVVSEKRDFKSSMEELMKDSEIRKHGKEVAKIVQKLIKERTFDVKRINEEKALREAKEFMEKELGIEIIINPTEDKGGKKKQAMPLKPAIFIE", "soluble on expression in E. coli": "soluble"}
{"sequence": "MPSSRRVRSRCCAFGITKRFACIRPACQRARMDAQMTNFETRLRENAAKTEALLGHLLSGEARADEITRPQNLLEAMRHGVLNGGKRLRPFLVIESVALLGGDAEAGLHVGAALECLHCYSLVHDDLPAMDDDDLRRGQPTVHRKFDEATAILAGDSLLTLAFDIIASDDNPLAAERKAALVISLARAAGIGGMAGGQALDLAAEKKAPDEDGIITLQAMKTGALLRFACEAGAIIAGSNQAERQRLRLFGEKIGLSFQLADDLLDLTADAATMGKATGKDAARGKGTLVALRGEAWAREKLQE", "soluble on expression in E. coli": "soluble"}
{"sequence": "MVLRKLSTYRQKRDFEKTPEPSGEAAVASSKQRRFVIQKHDASRLHYDFRLEFDGVFKSWAVTKGPSLDPHDKRLAVEVEDHPLDYGDFEGTIPEGQYGGGTVMLWDRGTWEADDPERGFKKGDLKFTLHGEKLHGSWVLVRMRNDRDGGKRTNWLLIKHRDEYAREGEDILAEDKSVASGRAMAQILEHHHHHH", "soluble on expression in E. coli": "soluble"}
{"sequence": "MGSDKIHHHHHHMQQAQLPLEAILYQYDLYPEAVEDHGENVKKLVTKHGLFALKKTQMTRSQADWFVYCMRKLDRLGYRKVVPLVPTKFGEYTLTDRDTSFYVMPWIESIPYNARESQEEKLADQLGVIHRLTVKTQPFSKEQLEASYNELRDRWDSRWLTMNRFADQAERKTYMSPYELTLLTHFSFLEHMAHTAKESLEAWYETCLEKEKYRSVLCHGRLSRAHAFFNERHEPLLFNFERAALDTPARDLASFFRHSFPHALWSEEEGHRWLYRYEQHLPLLEEEKRLLHAYLSFPDPVIYGIEAYQQQSGPPSEVKHVKRLEKRLLNLRRVERFSKSLLPTPAINESGLS", "soluble on expression in E. coli": "not soluble"}
{"sequence": "MHYVTPDLCDAYPELVQVVEPMFSNFGGRDSFGGEIVTIKCFEDNSLVKEQVDKDGKGKVLVVDGGGSLRRALLGDMLAEKAAKNGWEGIVVYGCIRDVDVIAQTDLGVQALASHPLKTDKRGIGDLNVAVTFGGVTFRPGEFVYADNNGIIVSPQALKMPELEHHHHHH", "soluble on expression in E. coli": "soluble"}
{"sequence": "RMALDEVWDSSHFALQPGRAEDGPGASLALRILAARLPDSGVYVCHARNAHGHAQAGALLQVHQPPESPPADPDEAPAPVVEPLKCAPKTFWVNEGKHAKFRCYVMGKPEPEIEWHWEGRPLLPDRRRLMYRDRDGGFVLKVLYCQAKDRGLYVCAARNSAGQTLSAVQLHVKEPRLRFTRPLQDVEGREHGIAVLECKVPNSRIPTAWFREDQRLLPCRKYEQIEEGTVRRLIIHRLKADDDGIYLCEMRGRVRTVANVTVKGPILKRLPRKLDVLEGENAVLLVETLEAGVEGRWSRDGEELPVICQSSSGHMHALVLPGVTREDAGEVTFSLGNSRTTTLLRVKCVKHSPPGPPILAEMFKGHKNTVLLTWKPPEPAPETPFIYRLERQEVGSEDWIQCFSIEKAGAVEVPGDCVPSEGDYRFRICTVSGHGRSPHVVFHGSAHLVPTARLVAGLEDVQVYDGEDAVFSLDLSTIIQGTWFLNGEELKSNEPEGQVEPGALRYRIEQKGLQHRLILHAVKHQDSGALVGFSCPGVQDSAALTIQESPVHILSPQDKVSLTFTTSERVVLTCELSRVDFPATWYKDGQKVEESELLVVKMDGRKHRLILPEAKVQDSGEFECRTEGVSAFFGVTVQDPPVHIVDPREHVFVHAITSECVMLACEVDREDAPVRWYKDGQEVEESDFVVLENEGPHRRLVLPATQPSDGGEFQCVAGDECAYFTVTITDVSSWIVYPSGKVYVAAVRLERVVLTCELCRPWAEVRWTKDGEEVVESPALLLQKEDTVRRLVLPAVQLEDSGEYLCEIDDESASFTVTVTEPPVRIIYPRDEVTLIAVTLECVVLMCELSREDAPVRWYKDGLEVEESEALVLERDGPRCRLVLPAAQPEDGGEFVCDAGDDSAFFTVTVTEPPVQFLALETTPSPLCVAPGEPVVLSCELSRAGAPVVWSHNGRPVQEGEGLELHAEGPRRVLCIQAAGPAHAGLYTCQSGAAPGAPSLSFTVQVAEPPVRVVAPEAAQTRVRSTPGGDLELVVHLSGPGGPVRWYKDGERLASQGRVQLEQAGARQVLRVQGARSGDAGEYLCDAPQDSRIFLVSVEEPLLVKLVSDLTPLTVHEGDDATFRCEVSPPDADVTWLRNGAVVTPGPQRQSCCSYGGCRMCGQRKARTCVSKWRQAEWVQRGPCAGCEVGSPCPTTLACPWPRMGTSTASSSMVSYWPTRAPTAARATTIAPWPGSA", "soluble on expression in E. coli": "soluble"}
{"sequence": "GMSNQKHIDKIQAVIKDVKFAMISTSNKKGDIHAWPMTTSEVNLDNKEIWFIGDKTSDVVKDIQDDARIGLTYATQDEKNYVSISGDAELPTDKAKLDELWSPVYSAFFANGKEDANIQLIKVVPHGVECWLSG", "soluble on expression in E. coli": "soluble"}
{"sequence": "MSLSLKELLKDRLSEEELKLVRRSFEIIGDVVIIEIPDEIMHHSRDIVEAILKRHKHVKTVLRKVGEVDGVYRVARYEPIYGEKTETVVREHGCRFLVDPTKAYYSVKLSGERERIARLVGEGERVLVMFAGVGPYPIVIAKLARPREVVGVELNPHAVEYFRQNVRLNKVEGVVKVIEGDVEEVVPQLSGQFDRVVMPAPYSAENFIHLLRGKVRRGGFVHYYTFDSQNEEKILPEKVRRKFEDEGLEVEVVKMRRCGNFAPYVNRYVLDLRVLEGHHHHHH", "soluble on expression in E. coli": "soluble"}
{"sequence": "MSLFGIEVEEEASQIIHILLLQYISKSYSTYSLRSNQGYNPQTLDNNQQIYNSQLSNGNQQSEITCPYCHSTQVTAGKKGFGVGKAIVGGLLLGPVGLLGGLIGSKNIEFVYNCITLSASNNTNSAQWLREQSNNAKNIVNRYLDNDFAEALVAGSALVAMADGVIEYSERERLINYFKTSQEMKHIDTNMVLSKFDCYTQKLQRDFMMGKQNYEGHHHHHH", "soluble on expression in E. coli": "not soluble"}
{"sequence": "MFDTKIAVILRDDLAVWQKLNVTAFLMSGIVAQTGEIIGEPYRDGAGNVYNPLSIQPIVVMATDQEALRKIHQRSLERDITTSLYIEEMFATGHDAANRQVFSHFSPDTAKVVGMALRADRKIVDKITKGAKLHA", "soluble on expression in E. coli": "soluble"}
{"sequence": "MSKLIITDNLEMLTEQGATRRRLLQAGLGACALLAMPAANAAYSRVYEKRVSLLNLHTGERVRTAYWERGKYIPEALRMIEKVLRDHRSGDIHRIDPRLLDLMQHLHHKTGNSKEFQVVSGYRSPATNAALSVQSHGVAKNSLHMQGKAIDIRLPGVPLHVLRRAAMSMHAGGVGYYPKSNFIHIDTGNVRYW", "soluble on expression in E. coli": "not soluble"}
{"sequence": "AVKILEIEDLFSSLKHIQHTLVDSQSQEDISLLLQLVQNKDFQNAFKIHNAITVHMNKAS", "soluble on expression in E. coli": "soluble"}
{"sequence": "MGSDKIHHHHHHSLQAQSTVSHNLANVDTVGFKAALANTEAFQIRGKGYPSRIDALHVDQGFDRSQGHQKVTGNPLDVSLQQDRWLAVQSPDGSEAYTRNGELALTANGQLVTANGHAVLDEGGNPMTIPPHQAMEIGSDGSISIIPQGEGPQTMAIVGKMKVVDAPADRLMRRPDGLMRNTSTDPAQAFAVATGKTVNSGMLEGSNVDAAGALVEMIQLQRQFEMQVKIIKNGDDNAQSANSLLRVSG", "soluble on expression in E. coli": "not soluble"}
